The text below walks through data of FireProtDB (doi:10.1111/j.1399-3011.1982.tb00898.x).

For the series the following is noted: Escherichia coli (strain K12), Thermal, DSC, whole UniProt chain shown.
[1] abbreviates: pH 7, 25 °C, potassium phosphate 1 mM, reversible: yes(<50%).
The mark [2] stands for this setting: pH 7, potassium phosphate 1 mM, reversible: yes(<50%).
The mark [3] stands for this setting: pH 9.3, 25 °C, sodium tetraborate 1 mM, reversible: yes(>70%).
The mark [4] stands for this setting: pH 9.3, sodium tetraborate 1 mM, reversible: yes(>70%).

As a reminder, the Tm is the temperature at the midpoint of the melting transition.

B1: Tryptophan synthase alpha chain wild type, P0A877 (protein)
chain: MERYESLFAQLKERKEGAFVPFVTLGDPGIEQSLKIIDTLIEAGADALELGIPFSDPLADGPTIQNATLRAFAAGVTPAQCFEMLALIRQKHPTIPIGLLMYANLVFNKGIDEFYAQCEKVGVDSVLVADVPVEESAPFRQAALRHNVAPIFICPPNADDDLLRQIASYGRGYTYLLSRAGVTGAENRAALPLNHLVAKLKEYNAAPPLQGFGISAPDQVKAAIDAGAAGAISGSAIVKIIEQHINEPEKMLAALKVFVQPMKAATRS
For the protein B1, the “heat capacity change of unfolding” value came out at 2.9 kcal/mol/K under setting [1], 2.9 kcal/mol/K under setting [2], 2.9 kcal/mol/K under setting [3] and 2.9 kcal/mol/K under setting [4]. For the same protein, the unfolding free energy by setting is: under setting [1], 8.4 kcal/mol; under setting [3], 5.8 kcal/mol. For the same protein, the Tm turned out to be 62.4 °C under setting [2] and 54.3 °C under setting [4].
